Where a chain is given by its changes, count along the chain named. Names may count otherwise.
Assays:
human TIGIT protein = molecular target: T1, human TIGIT protein (human, UniProt Q495A1 22-141, limits assumed); assay: SPR, bivalent affinity
T1 construct: Recombinant protein (Genentech) used in ELISA screening and as SPR analyte; also called TIGIT antigen
T1 sequence: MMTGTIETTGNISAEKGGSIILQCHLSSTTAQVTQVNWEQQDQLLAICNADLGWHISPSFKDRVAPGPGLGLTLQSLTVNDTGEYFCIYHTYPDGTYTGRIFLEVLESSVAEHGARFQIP

[1] = molecular target: cynomolgus monkey (cyno) TIGIT protein (cynomolgus monkey, UniProt A0A7N9I9V4 89-209); assay: SPR, bivalent affinity
Sequence of cynomolgus monkey (cyno) TIGIT protein (A0A7N9I9V4 entry or part of it): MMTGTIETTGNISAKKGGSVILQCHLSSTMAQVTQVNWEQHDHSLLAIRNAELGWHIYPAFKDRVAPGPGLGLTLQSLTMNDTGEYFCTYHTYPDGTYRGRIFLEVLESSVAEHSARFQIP

[2] = molecular target: T2, human TIGIT-AviFlag-biotin (human, UniProt Q495A1 22-141, biotin); assay: Block ELISA Human PVR-Fc:Bio-TIGIT-AviFlag (blocked ligand human PVR-Fc)
T2 sequence: T1 sequence
Protocol: (§1) To test for the ability of the clones to block the TIGIT-PVR interaction, a blocking ELISA assay was used. Briefly, recombinant human PVR-Fc fusion protein, cynomolgus monkey PVR-Fc fusion protein, or mouse PVR-Fc fusion protein was coated at 4 μg/ml at 25 μl/well in phosphate-buffered saline (PBS, pH 7.0) onto 384-well Maxisorp microtiter plates (NUNC, Denmark) and incubated overnight at 4° C. The coating solution was then discarded and the plate was blocked using 0.5% bovine serum albumin (BSA) in PBS at 80 μl/well and incubated with gentle agitation for 1 hour. Titration curves of anti-TIGIT and Fab isotype control antibodies were diluted in assay buffer (PBS, 0.5% BSA, 0.05% Tween 20) using 12 serial 2.5-fold dilutions (40000-1.7 ng/mL). […] The plate was then washed 6× with wash buffer and bound human TIGIT-AviFlag-biotin, cyno TIGIT-AviFlag-biotin, or mouse TIGIT-His was detected by adding 25 μl/well of horseradish peroxidase-conjugated streptavidin (1:10000, Amersham, UK) or horseradish peroxidase-conjugated mouse anti-His (1:2500, Qiagen, Germany) diluted in assay buffer. […] Absorbance was read at 450 nm on a […] ASCENT® microtiter plate reader (Thermo Labsystems, Helsinki, Finland). Fit curves were plotted from the resulting optical density values from the ELISA plates and IC50s were calculated using Genedata Screener software (Genedata, Switzerland).

mouse TIGIT-His = molecular target: T3, mouse TIGIT-His (mouse, UniProt P86176 29-148, limits assumed); assay: Block ELISA Mouse PVR-Fc:TIGIT-His (blocked ligand mouse PVR-Fc)
T3 sequence (looked up): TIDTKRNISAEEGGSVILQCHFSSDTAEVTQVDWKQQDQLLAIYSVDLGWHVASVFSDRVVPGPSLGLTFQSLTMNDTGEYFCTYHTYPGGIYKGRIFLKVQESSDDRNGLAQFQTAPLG
Protocol: as §1

[3] = molecular target: T4, mu TIGIT (target named for 10A7 in the heads of Tables 6 and 7) (mu (mouse), UniProt P86176 29-249, limits assumed); assay: FACS, CHO cells expressing TIGIT
T4 construct: Only the column head says mu TIGIT; the text describes no mouse TIGIT cells
T4 sequence (looked up): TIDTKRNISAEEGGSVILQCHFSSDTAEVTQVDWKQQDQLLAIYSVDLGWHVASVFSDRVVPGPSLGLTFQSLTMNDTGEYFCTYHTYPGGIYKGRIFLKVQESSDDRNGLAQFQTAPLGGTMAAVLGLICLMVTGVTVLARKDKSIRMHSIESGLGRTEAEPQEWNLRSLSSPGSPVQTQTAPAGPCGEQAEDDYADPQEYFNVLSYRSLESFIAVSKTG

[4] = molecular target: T4, mu TIGIT (target named for 10A7 in the …); assay: TR-FRET, TIGIT with ST-CD226 on CHO cells; competitor CD226

B1: 4.1D3 (antibody, V domains shown)
VH: QVQLQQSGPGLVKPSQTLSLTCAISGDSVSSNSAAWNWIRQSPSRGLEWLGKTYYRFKWYSDYAVSVKGRITINPDTSKNQFSLQLNSVTPEDTAVFYCTRESTTYDLLAGPFDYWGQGTLVTVSS
VL: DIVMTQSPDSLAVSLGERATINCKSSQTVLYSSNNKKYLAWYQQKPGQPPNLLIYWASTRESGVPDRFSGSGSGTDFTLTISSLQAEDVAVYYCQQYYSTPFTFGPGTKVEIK
notes: OMT rat-derived human antibody; also called 4.1D3.Q1
Kd (human TIGIT protein): ≤ 0.019 nM
Kd [1]: 0.36 nM

B2: 4.1D3.Q1E (antibody, V domains shown)
VH: B1 VH with Q1E
VL: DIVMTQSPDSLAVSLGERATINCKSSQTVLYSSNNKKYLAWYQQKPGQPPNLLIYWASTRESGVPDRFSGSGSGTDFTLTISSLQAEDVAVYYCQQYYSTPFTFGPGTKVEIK
IC50 [2]: 6.9 nM
IC50 (mouse TIGIT-His): > 133 nM

B3: 10A7 (antibody, V domains shown)
VH: EVQLVESGGGLTQPGKSLKLSCEASGFTFSSFTMHWVRQSPGKGLEWVAFIRSGSGIVFYADAVRGRFTISRDNAKNLLFLQMNDLKSEDTAMYYCARRPLGHNTFDSWGQGTLVTVSS
VL: DIVMTQSPSSLAVSPGEKVTMTCKSSQSLYYSGVKENLLAWYQQKPGQSPKLLIYYASIRFTGVPDRFTGSGSGTDYTLTITSVQAEDMGQYFCQQGINNPLTFGDGTKLEIKR
EC50 [3]: 0.54 nM
IC50 [4]: 17.6 nM
